The target of test [1] is T1, BSA (Bos taurus, UniProt P02769).
T1 construct: also called bovine serum albumin
Put plainly: phage ELISA, BSA coated, anti-M13-HRP, Abs. 492 nm. In general terms: In an ELISA, binding on a coated surface is turned into a signal by an enzyme label.

In test [2] the target is T2, toxin Cll1 from Centruroides limpidus limpidus (Centruroides limpidus limpidus, UniProt P45667 1-66).
T2 sequence: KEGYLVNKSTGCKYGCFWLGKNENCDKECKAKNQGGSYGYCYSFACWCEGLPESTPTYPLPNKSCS
Description: phage ELISA, Cll1 coated at 3 µg/ml, anti-M13-HRP, Abs. 492 nm.

Test [3] deals with toxin Cll2 from Centruroides limpidus limpidus (Centruroides limpidus limpidus, UniProt P59898 1-66). Description: phage ELISA, Cll2 coated at 3 µg/ml, anti-M13-HRP, Abs. 492 nm.
Test [4] deals with T3, toxin Cn2 from Centruroides noxius Hoffmann scorpion venom (Centruroides noxius Hoffmann, UniProt P01495 17-82).
T3 construct: mature; also called Cn2 toxin; formerly 11-9.2.2
Description: SPR (Biacore), Cn2 immobilised, soluble scFv injected.

B1: scFv 3F (scFv)
scFv: EVQLVESGGGLVQPGGSLRLSCAGSGFTFDNYAMHWIRQVPGEGLEWVSGISRSSGDIGYADSVKGRFTISRDNAKKSLSLQMNSLRAEDTAVYYCARGGVGSFDTWGQGTMVTVSSGGGGSGGGGSGGGGSEIVLTQSPATLSVSPGERATLSCRASQSVRSYLAWYQQKPGQAPRLLISDASNRATGIPARFTGSGSGTDFTLTISSLEPEDFAIYYCQQYRYSPRTFGQGTKVEIKR
notes: also called clone 3F; phage-antibody 3F
As to B1, the binding result in test [1], in test [2] and in test [3] was “no binding (tested: 1x10^11 phages/ml)” in each case.

B2: scFv C1 (scFv)
scFv: QVNLRESGGGLVQPGGSLRLSCAASGFSFGSYGMHWVRQAPGKGLEWVAVISYDGSNKYYADSVKGRFTISRDNSKNTLYLQMNSLRAEDTAVYYCAKDARDCLMCADWYFDLWGRGTLVTVSSGGGGSGGGGSGGGGSNFMLTQPHSASGTPGQRVTISCSGSSSNIGSNTVNWYRHLPGSAPELLIGSHNQRPSGVPDRFSASKSDTSASLAISGLQSEDEADYYCAAWDDSLIGYVFGTGTKLTVLG
notes: also called clone C1; phage-antibody C1
In test [4], B2 returned a Kd of 540 nM, a koff of 0.014 s⁻¹ and a kon of 20000 M⁻¹ s⁻¹. In addition, the binding result in test [1] is given as “no binding (tested: 1x10^11 phages/ml)”. For the same molecule, the binding result in test [2] was “no binding (tested: 1x10^11 phages/ml)”. Also, in test [3], the binding result is “no binding (tested: 1x10^11 phages/ml)”.

In general, Kd refers to the constant that tells how readily two partners part at equilibrium. Higher therefore signals a looser complex. As usually defined, the koff is the first-order rate constant of dissociation. The term kon denotes a measure of how fast the partners come together. Low values mean slower complex formation, high ones faster complex formation.
